Experiment [1] addresses T1, His-tagged human RNASEH2B (human, UniProt Q5TBB1 1-312).
T1 sequence (looked up): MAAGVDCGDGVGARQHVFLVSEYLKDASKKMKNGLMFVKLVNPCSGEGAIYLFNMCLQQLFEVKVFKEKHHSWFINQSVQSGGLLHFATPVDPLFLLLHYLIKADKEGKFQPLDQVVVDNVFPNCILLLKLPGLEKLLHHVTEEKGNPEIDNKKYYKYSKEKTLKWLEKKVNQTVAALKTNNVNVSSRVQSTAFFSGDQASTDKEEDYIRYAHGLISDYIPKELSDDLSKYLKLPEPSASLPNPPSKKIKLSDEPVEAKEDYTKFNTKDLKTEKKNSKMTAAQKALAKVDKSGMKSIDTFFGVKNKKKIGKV
In words: SEC.

The target in experiment [2] is T2, His-tagged human RNASEH2C (human, UniProt Q8TDP1 1-164).
T2 sequence (looked up): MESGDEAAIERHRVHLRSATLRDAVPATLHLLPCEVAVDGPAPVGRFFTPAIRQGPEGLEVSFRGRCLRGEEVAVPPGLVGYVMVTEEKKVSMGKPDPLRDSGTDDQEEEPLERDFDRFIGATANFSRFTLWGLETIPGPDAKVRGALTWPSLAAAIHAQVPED
In words: SEC. (In general: SEC sorts molecules by how far they enter the pores of the column.)

Experimental findings from PMC2615623 (Nucleic Acids Research, 2008) are described below.

B1: His-tagged human RNASEH2A (natural protein, UniProt O75792 1-299, looked up)
chain: MDLSELERDNTGRCRLSSPVPAVCRKEPCVLGVDEAGRGPVLGPMVYAICYCPLPRLADLEALKVADSKTLLESERERLFAKMEDTDFVGWALDVLSPNLISTSMLGRVKYNLNSLSHDTATGLIQYALDQGVNVTQVFVDTVGMPETYQARLQQSFPGIEVTVKAKADALYPVVSAASICAKVARDQAVKKWQFVEKLQDLDTDYGSGYPNDPKTKAWLKEHVEPVFGFPQFVRFSWRTAQTILEKEAEDVIWEDSASENQEGLRKITSYFLNEGSQARPRSSHRYFLERGLESATSL
Consider B1, for which the “stoichiometry N” value in experiment [1] and in experiment [2] was 1 A:B:C in each case.
